Assay results: the nanobody polyreactivity screen of Harvey et al. (2022)

assay: yeast display, Sf9 membrane polyspecificity reagent, FACS + sequencing; frameworks hold sequencing errors
In short: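 Using colony PCR, genes from sorted yeast display clones were amplified, then sequenced on MiSeq at 2 × 250 and filtered by CDR length. The clones had been stained with 10% biotinylated, detergent-solubilized Sf9 membrane reagent for 1 hour at 4 °C and sorted by FACS into low and high (top ~1%) gates on anti-HA and streptavidin fluorescence. Polyreactivity labels come from the gate of origin.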

Sequence | polyreactivity (PSR sort gate)
QVQLVESGGGLVQAGGSLRLSCAASGSTFYSNAMGWYRQAPRKERELVASISWSSGSTYYADSVKGRFTISRDNAKNTVYLQMNSLKPEDTAVYYCATDAGGPYRFGYWGQGTQVTVSS | low polyreactivity
QVQLVESGGGLVQAGGSLRLSCAASGSTFYSNVMGWYRQAPGKEREFVAGISGSGGSTYYADSVKGRFTISRDNAKNTVYLQMNSLKPEDTAVYYCAKYRYSRYFRYDYWGQCTQVTVSS | high polyreactivity
QVQLVESGGGLVQAGGSLRLSCAASGSTFYSNVMGWYRQAPGKERELVAAISQSGGRTFYADSVKGRFTISRDNAKNTVYLQMNSLIPEDTAVYYGNYVRAQPRNPYDYWGQGTQVTVSS | high polyreactivity
QVQLVESGGGLVQAGGSLRLSCAASGSTFYSYAMGWYRQAPGKERELVAAITTSGGSTYYADSVKGRFTISRDNAKNTVYLQMNSLKPEDTAVYYCAAYDLYWYEYWGQGTQVTVSS | low polyreactivity
QVQLVESGGGLVQAGGSLRLSCAASGSTFYSYGMGWYRQAPGKERELVAAITEDGDTTYYADSVKGLYTISRDNAKNTVYLQMNSLKPEDTAVYYCAAETYYLDDYWGQATQVTVSS | high polyreactivity
QVQLVESGGGLVQAGGSLRLSCAASGSTFYSYVMGWYRQAPGKERELVAVITSGGSTTYADSVKGRFTISRDNAKNTVYLQMNSLKPEDTAVYYCAKRNYLSYRYDYWGQGTQVTVSS | low polyreactivity
QVQLVESGGGLVQAGGSLRLSCAASGSTFYTNAMGWYRQAPGKERELVAAISYGGGSTYYADSVKGRFTISRDNAKNTVYLQMHSLKPEDTAVYYCAARAPEKSWWRYRYGYWGQGTQVTVSS | high polyreactivity
QVQLVESGGGLVQAGGSLRLSCAASGSTFYTNAMGWYRQAPGKEREMVASITGGGSTYYADSVKGRFTISRDNAKNTVYLQMNSLKPEDTAVYYCDADNVGGGWEFDSWGQGTQVTVSS | low polyreactivity
QVQLVESGGGLVQAGGSLRLSCAASGSTFYTYTMGWYRQAPGKERALVAAISSSGGDTYYADSVKGRFTISRDNAKNTVYLQMNSLKPEDTAVYYCAALGAFPSLEFDYWGQGTQVTVSS | low polyreactivity
QVQLVESGGGLVQAGGSLRLSCAASGSTFYTYVMGWYRQAPGKERELVAAISSGGGNTYYADSVKGRFTISRDNAKYTVYLQMNSLKPEDTAVYYCAASHTSYYLRYGYWGQGTQVTVSS | high polyreactivity
QVQLVESGGGLVQAGGSLRLSCAASGSTFYVNAMGWYRPAPGKERELVAAITKSGGNTYYADSVKGRFTISRDNAKNTVYLQMNSLKPEDTAVYYCAAYKRYSSLTGYESWGQGTQVTVSS | high polyreactivity
QVQLVESGGGLVQAGGSLRLSCAASGSTFYVNAMGWYRQAPGKEREFVAAISWSGGSTYYADSVKGRFTISRDNAKNTVYLQMNSLKPEDTAVYYCAADRVRKDGVLFDYWGQGTQGTVSS | high polyreactivity
QVQLVESGGGLVQAGGSLRLSCAASGSTFYVNAMGWYRQAPGKERELVAAINSGGRTYYADSVKGRFTISRDNAKNTVYLQMNSLKPEDTAVYYCAAEVSYYLNEFDYWGQGTQVTVSS | low polyreactivity
QVQLVESGGGLVQAGGSLRLSCAASGSTFYVYAIGWYRHAPGKERELVADITYSDGGTFYADSVKGRFTISRDNAKTTVYLQMNSLKPEDTAGYYCATSYLWNYRGDIFDYWGQGTQVTVSS | high polyreactivity
QVQLVESGGGLVQAGGSLRLSCAASGSTFYVYAMGWYRQAPGKERELVAAINFNGGGTYYADSVKGRFTISRDNAMNTVYLQMNSLKPEDTAFYYCNAEDDYTYDRSFGGYKYDYWGQGTQVTVSS | low polyreactivity
QVQLVESGGGLVQAGGSLRLSCAASGSTFYVYAMGWYRQAPGKERELVATISSGGITNYADSVKGRFTISRDNAMNTVYLQMNSLKPEDTAVYYCNAKKAYYGRGMNYWGQGTQVTVSS | low polyreactivity
QVQLVESGGGLVQAGGSLRLSCAASGSTFYVYAMGWYRQAPGKERELVAVIRYRGDRTYYADSVKGRFTISRDNAKNTVYLQMNSLKPEDTAVYYCAKEGFYKYYWGQGTQVTVSS | high polyreactivity
QVQLVESGGGLVQAGGSLRLSCAASGSTFYVYAMGWYRQAPGTERELVAAIDYSDGSTYYADSVKGRFTISRDNAKNTVYLQMNSRKPEDTAVYYCAADTVSWFEYYYWGQGTQVTVSS | high polyreactivity
QVQLVESGGGLVQAGGSLRLSCAASGSTFYVYVMGGYRQAPGKERELVAAITSSGDITYYADSVKGRFTISRYNAKITVYLQMNSLIPEETAVYYCAASPFRRRYNGENDYWGQGTQVTGSS | high polyreactivity
QVQLVESGGGLVQAGGSLRLSCAASGSTFYWYAMGWYRPAPGKERELVAAISSGADTSYADSVKGRFTISRDNAKNTVYLQMNSLKPEDTAVYYCARRYRARGSMYYWGQGTKVTVSS | high polyreactivity
QVQLVESGGGLVQAGGSLRLSCAASGSTFYWYTMGWYRQAPGKEKELVARISSSGSTNYADSVKGRFTISRDNAKNTVYLQMNSLKPEDTAVYYCNKDWIYRGYDYWGQGTQVTVSS | high polyreactivity
QVQLVESGGGLVQAGGSLRLSCAASGSTFYYMGWSRQAPGKERELVAAITQSGGSTYYADSVKGRFTISRDNAKNTVYLQMNSLKPEDTAVYYCAARYASPRYKSKMDYWGQGTQVTVSS | high polyreactivity

Sequence | polyreactivity (PSR sort gate)
QVQLVESGGGLVQAGGSLRLSCAASGSTFYYNAMGWYRQAPGKERELVAAITFTGGSTYADSVKGRFTISRDNAKNTVYLQLNSLKPEDTAVYYCAATIQGHDYLGTGYDYWGQGTQVTVSS | low polyreactivity
QVQLVESGGGLVQAGGSLRLSCAASGSTFYYNAMGWYRTAPGKERELVAVIDGSGGFTYYADSVKGRFTISRDNAKNTVYLQMNSLKPEDTAVYYCNADLVYNTFIFSGGDEYDYWGQGTQVTVSS | high polyreactivity
QVQLVESGGGLVQAGGSLRLSCAASGSTFYYNTMGWYRQAPGKERELVAAISSGGSTNYADSVKGRFTISRDNAKNTVYLQMNSLKPEDTAVYYCAKRRGGALYAYRYYYWGQGTQVTVSS | high polyreactivity
QVQLVESGGGLVQAGGSLRLSCAASGSTFYYNTMGWYRQAPGKERELVAAISWRGGSTYYADSVKGRFTISRDNAKNTVYLLMNSLKPVDTAVYYCAAGWYPRSVRPFESFVGLDYWGQGTQVTVSS | high polyreactivity
QVQLVESGGGLVQAGGSLRLSCAASGSTFYYYAMGCYRQAPGKERELVASITTGGGSTYYADSVKGRFTISRDNAKNTVYLQLNSLKPEDTAVYYCGAALAYYYWWYDYWGQCTQVTVSS | low polyreactivity
QVQLVESGGGLVQAGGSLRLSCAASGSTFYYYAMGWYRPAPGKERELVAAISSSGGITYYADSVKGRFTISRDNAKNTVYLQMNSLKPEDTAVYYCAADVIVFYYGPNYWGDIGYGYWGQGTQVTVSS | low polyreactivity
QVQLVESGGGLVQAGGSLRLSCAASGSTFYYYAMGWYRQAPGKDRELVAAISKRDGRTYYADSVKGRFTISRDNAKNTVYLQMNSLKPEDTAVYYCNAYSYGHYYWGQGTQVTVSS | high polyreactivity
QVQLVESGGGLVQAGGSLRLSCAASGSTFYYYAMGWYRQAPGKEMELVAAINWSGASTYYADSVKGRFTISRDNAKNTVYLQMNSLIPEDTAVYYCAAGYAGGYGVTFDYCGQGTQVTVSS | low polyreactivity
QVQLVESGGGLVQAGGSLRLSCAASGSTFYYYAMGWYRQAPGKEREFVAAITFRGGSTYYADSVKGRFTISRDNAKNTVYLQMNSLKPEDTAVYYCAAKPPFRNYVRYDYWGQGTQVTVSS | high polyreactivity
QVQLVESGGGLVQAGGSLRLSCAASGSTFYYYAMGWYRQAPGKEREFVASISSRGTSTYYADSVKGRFTISRDHAKNTVYLQMNSMKPEDTAVYYCAARGWGPTRAYDYWGQGTQVTVSS | high polyreactivity
QVQLVESGGGLVQAGGSLRLSCAASGSTFYYYAMGWYRQAPGKERELFATINKNVGITYYADSVKGRFTISRDNAKNTVYLQRNSMKTEVTAVDYCAAHGRINPDGPRTVFFASEEDYWGQGTQVTVSS | low polyreactivity
QVQLVESGGGLVQAGGSLRLSCAASGSTFYYYAMGWYRQAPGKERELVAAINSGGRTNYADSVKGRFTISRDNAKNTVYLQMNSLKPEDTAVYYCAKRTYPYGTYRSVWGYDYWGQGTQVTVSS | low polyreactivity
QVQLVESGGGLVQAGGSLRLSCAASGSTFYYYAMGWYRQAPGKERELVAAISVRAGITYYADSVKGRFTISRDNAKNTVYLQMNSLKPEDTAVYYCAKDHWTTSSDEGDYWGQGTQVTVSS | low polyreactivity
QVQLVESGGGLVQAGGSLRLSCAASGSTFYYYAMGWYRQAPGKERELVARITWIGGSTYYADSVKGRFTISRDNAKNTVYLQMNSLKPEDTAVYYCAAGWYRRIYGGWGYDYWGQGTQVTVSS | low polyreactivity
QVQLVESGGGLVQAGGSLRLSCAASGSTFYYYAMGWYRQAPGKERELVAVISWGGGSTYYADSVKGRFTISRDNAKNTVYLQMNSLKPEDTAVYYCAAVYDEYQTTHEYDYWGQGTQVTVSS | low polyreactivity
QVQLVESGGGLVQAGGSLRLSCAASGSTFYYYAMGWYSPAPGKERELVAAISRGGGSTNYADSVKGRFTISRDNAKNTVYLQMNSLKPEDTAVYYCATDYKYYGRPYNYWGQGTQVTVSS | high polyreactivity
QVQLVESGGGLVQAGGSLRLSCAASGSTFYYYTMGWYRQAPGKERELVAISWDGDSTYYADSVKGRFTISRDNAKNTVYLQMNSLKPEDTAVYYCAAADYYLPDDVSDYVDANFDYWGQGTQVTVSS | low polyreactivity
QVQLVESGGGLVQAGGSLRLSCAASGSTGFYGMGWYRQAPGKERELVAAITFRSGSTYYADSVKGRFTISRDNAKNTVYLQMNSLKPEDTAVYYCAAYSFNNGHRYDYWGQGTQVTVSS | high polyreactivity
QVQLVESGGGLVQAGGSLRLSCAASGSTIDGYAMGWYRQAPRKERELVAAITFDGSSTYYADSVKGRFTISRDNAKNTVYLQMNSLKPEVTAVYYCAAASSYWVLWDDYWGQGTQVTVSS | low polyreactivity
QVQLVESGGGLVQAGGSLRLSCAASGSTIDTYAMGWYRQAPGKERELVAGISWSGGSTFYADSVKGRFTISRDNAKNTVYLQMNSLKPEDTAVYYCAKQLWVGVKYDYWGQGTQVTVSS | low polyreactivity
QVQLVESGGGLVQAGGSLRLSCAASGSTIEANAMGWYRQAPGKERELVAVNTWTGGSTYYADSVKGRFTISRDNAKNTVYLQMNSLKPEDTAVYYCAADGVVPGRFFWPAHEYDYWGQGTQVTVSS | low polyreactivity
